B1: C5A (XPA23) VL D28P (antibody, V domains shown)
VH: EVQLLESGGGLVQPGGSLRLSCAASGFTFSKYFMFWVRQAPGKGLEWVSVISPSGGMTRYADSVKGRFTISRDNSKNTLYLQMNSLRAEDTAVYYCARVGYGGNSDYWGQGTLVTVSS
VL: DIQMTQSPSSVSASVGDRLTIICRASQPINRWLAWYQQTPGNAPKLLIHSATSLQSGVPSRFSGSGSGTDFTLTINSLQPEDFATYYCQQADSFPLTFGGGTKVEIK
B2: C5A (XPA23) VL N30W (antibody, V domains shown)
VH: EVQLLESGGGLVQPGGSLRLSCAASGFTFSKYFMFWVRQAPGKGLEWVSVISPSGGMTRYADSVKGRFTISRDNSKNTLYLQMNSLRAEDTAVYYCARVGYGGNSDYWGQGTLVTVSS
VL: DIQMTQSPSSVSASVGDRLTIICRASQDIWRWLAWYQQTPGNAPKLLIHSATSLQSGVPSRFSGSGSGTDFTLTINSLQPEDFATYYCQQADSFPLTFGGGTKVEIK
B3: C5A (XPA23) VL N30P (antibody, V domains shown)
VH: EVQLLESGGGLVQPGGSLRLSCAASGFTFSKYFMFWVRQAPGKGLEWVSVISPSGGMTRYADSVKGRFTISRDNSKNTLYLQMNSLRAEDTAVYYCARVGYGGNSDYWGQGTLVTVSS
VL: DIQMTQSPSSVSASVGDRLTIICRASQDIPRWLAWYQQTPGNAPKLLIHSATSLQSGVPSRFSGSGSGTDFTLTINSLQPEDFATYYCQQADSFPLTFGGGTKVEIK
B4: C5A (XPA23) VL R31G (antibody, V domains shown)
VH: EVQLLESGGGLVQPGGSLRLSCAASGFTFSKYFMFWVRQAPGKGLEWVSVISPSGGMTRYADSVKGRFTISRDNSKNTLYLQMNSLRAEDTAVYYCARVGYGGNSDYWGQGTLVTVSS
VL: DIQMTQSPSSVSASVGDRLTIICRASQDINGWLAWYQQTPGNAPKLLIHSATSLQSGVPSRFSGSGSGTDFTLTINSLQPEDFATYYCQQADSFPLTFGGGTKVEIK
B5: C5A (XPA23) VL N30F (antibody, V domains shown)
VH: EVQLLESGGGLVQPGGSLRLSCAASGFTFSKYFMFWVRQAPGKGLEWVSVISPSGGMTRYADSVKGRFTISRDNSKNTLYLQMNSLRAEDTAVYYCARVGYGGNSDYWGQGTLVTVSS
VL: DIQMTQSPSSVSASVGDRLTIICRASQDIFRWLAWYQQTPGNAPKLLIHSATSLQSGVPSRFSGSGSGTDFTLTINSLQPEDFATYYCQQADSFPLTFGGGTKVEIK
B6: C5A (XPA23) VL R31L (antibody, V domains shown)
VH: EVQLLESGGGLVQPGGSLRLSCAASGFTFSKYFMFWVRQAPGKGLEWVSVISPSGGMTRYADSVKGRFTISRDNSKNTLYLQMNSLRAEDTAVYYCARVGYGGNSDYWGQGTLVTVSS
VL: DIQMTQSPSSVSASVGDRLTIICRASQDINLWLAWYQQTPGNAPKLLIHSATSLQSGVPSRFSGSGSGTDFTLTINSLQPEDFATYYCQQADSFPLTFGGGTKVEIK
B7: C5A (XPA23) VL H49W (antibody, V domains shown)
VH: EVQLLESGGGLVQPGGSLRLSCAASGFTFSKYFMFWVRQAPGKGLEWVSVISPSGGMTRYADSVKGRFTISRDNSKNTLYLQMNSLRAEDTAVYYCARVGYGGNSDYWGQGTLVTVSS
VL: DIQMTQSPSSVSASVGDRLTIICRASQDINRWLAWYQQTPGNAPKLLIWSATSLQSGVPSRFSGSGSGTDFTLTINSLQPEDFATYYCQQADSFPLTFGGGTKVEIK
B8: C5A (XPA23) VL H49L (antibody, V domains shown)
VH: EVQLLESGGGLVQPGGSLRLSCAASGFTFSKYFMFWVRQAPGKGLEWVSVISPSGGMTRYADSVKGRFTISRDNSKNTLYLQMNSLRAEDTAVYYCARVGYGGNSDYWGQGTLVTVSS
VL: DIQMTQSPSSVSASVGDRLTIICRASQDINRWLAWYQQTPGNAPKLLILSATSLQSGVPSRFSGSGSGTDFTLTINSLQPEDFATYYCQQADSFPLTFGGGTKVEIK
B9: C5A (XPA23) VL R31V (antibody, V domains shown)
VH: EVQLLESGGGLVQPGGSLRLSCAASGFTFSKYFMFWVRQAPGKGLEWVSVISPSGGMTRYADSVKGRFTISRDNSKNTLYLQMNSLRAEDTAVYYCARVGYGGNSDYWGQGTLVTVSS
VL: DIQMTQSPSSVSASVGDRLTIICRASQDINVWLAWYQQTPGNAPKLLIHSATSLQSGVPSRFSGSGSGTDFTLTINSLQPEDFATYYCQQADSFPLTFGGGTKVEIK
B10: C5A (XPA23) VL R31I (antibody, V domains shown)
VH: EVQLLESGGGLVQPGGSLRLSCAASGFTFSKYFMFWVRQAPGKGLEWVSVISPSGGMTRYADSVKGRFTISRDNSKNTLYLQMNSLRAEDTAVYYCARVGYGGNSDYWGQGTLVTVSS
VL: DIQMTQSPSSVSASVGDRLTIICRASQDINIWLAWYQQTPGNAPKLLIHSATSLQSGVPSRFSGSGSGTDFTLTINSLQPEDFATYYCQQADSFPLTFGGGTKVEIK
B11: C5A (XPA23) VL N30V (antibody, V domains shown)
VH: EVQLLESGGGLVQPGGSLRLSCAASGFTFSKYFMFWVRQAPGKGLEWVSVISPSGGMTRYADSVKGRFTISRDNSKNTLYLQMNSLRAEDTAVYYCARVGYGGNSDYWGQGTLVTVSS
VL: DIQMTQSPSSVSASVGDRLTIICRASQDIVRWLAWYQQTPGNAPKLLIHSATSLQSGVPSRFSGSGSGTDFTLTINSLQPEDFATYYCQQADSFPLTFGGGTKVEIK
B12: C5A (XPA23) VL R31W (antibody, V domains shown)
VH: EVQLLESGGGLVQPGGSLRLSCAASGFTFSKYFMFWVRQAPGKGLEWVSVISPSGGMTRYADSVKGRFTISRDNSKNTLYLQMNSLRAEDTAVYYCARVGYGGNSDYWGQGTLVTVSS
VL: DIQMTQSPSSVSASVGDRLTIICRASQDINWWLAWYQQTPGNAPKLLIHSATSLQSGVPSRFSGSGSGTDFTLTINSLQPEDFATYYCQQADSFPLTFGGGTKVEIK
B13: C5A (XPA23) VL H49A (antibody, V domains shown)
VH: EVQLLESGGGLVQPGGSLRLSCAASGFTFSKYFMFWVRQAPGKGLEWVSVISPSGGMTRYADSVKGRFTISRDNSKNTLYLQMNSLRAEDTAVYYCARVGYGGNSDYWGQGTLVTVSS
VL: DIQMTQSPSSVSASVGDRLTIICRASQDINRWLAWYQQTPGNAPKLLIASATSLQSGVPSRFSGSGSGTDFTLTINSLQPEDFATYYCQQADSFPLTFGGGTKVEIK
B14: C5A (XPA23) VL R31A (antibody, V domains shown)
VH: EVQLLESGGGLVQPGGSLRLSCAASGFTFSKYFMFWVRQAPGKGLEWVSVISPSGGMTRYADSVKGRFTISRDNSKNTLYLQMNSLRAEDTAVYYCARVGYGGNSDYWGQGTLVTVSS
VL: DIQMTQSPSSVSASVGDRLTIICRASQDINAWLAWYQQTPGNAPKLLIHSATSLQSGVPSRFSGSGSGTDFTLTINSLQPEDFATYYCQQADSFPLTFGGGTKVEIK
B15: C5A (XPA23) VL N30G (antibody, V domains shown)
VH: EVQLLESGGGLVQPGGSLRLSCAASGFTFSKYFMFWVRQAPGKGLEWVSVISPSGGMTRYADSVKGRFTISRDNSKNTLYLQMNSLRAEDTAVYYCARVGYGGNSDYWGQGTLVTVSS
VL: DIQMTQSPSSVSASVGDRLTIICRASQDIGRWLAWYQQTPGNAPKLLIHSATSLQSGVPSRFSGSGSGTDFTLTINSLQPEDFATYYCQQADSFPLTFGGGTKVEIK
B16: C5A (XPA23) VL N30I (antibody, V domains shown)
VH: EVQLLESGGGLVQPGGSLRLSCAASGFTFSKYFMFWVRQAPGKGLEWVSVISPSGGMTRYADSVKGRFTISRDNSKNTLYLQMNSLRAEDTAVYYCARVGYGGNSDYWGQGTLVTVSS
VL: DIQMTQSPSSVSASVGDRLTIICRASQDIIRWLAWYQQTPGNAPKLLIHSATSLQSGVPSRFSGSGSGTDFTLTINSLQPEDFATYYCQQADSFPLTFGGGTKVEIK
B17: C5A (XPA23) VL H49F (antibody, V domains shown)
VH: EVQLLESGGGLVQPGGSLRLSCAASGFTFSKYFMFWVRQAPGKGLEWVSVISPSGGMTRYADSVKGRFTISRDNSKNTLYLQMNSLRAEDTAVYYCARVGYGGNSDYWGQGTLVTVSS
VL: DIQMTQSPSSVSASVGDRLTIICRASQDINRWLAWYQQTPGNAPKLLIFSATSLQSGVPSRFSGSGSGTDFTLTINSLQPEDFATYYCQQADSFPLTFGGGTKVEIK
B18: C5A (XPA23) VL H49P (antibody, V domains shown)
VH: EVQLLESGGGLVQPGGSLRLSCAASGFTFSKYFMFWVRQAPGKGLEWVSVISPSGGMTRYADSVKGRFTISRDNSKNTLYLQMNSLRAEDTAVYYCARVGYGGNSDYWGQGTLVTVSS
VL: DIQMTQSPSSVSASVGDRLTIICRASQDINRWLAWYQQTPGNAPKLLIPSATSLQSGVPSRFSGSGSGTDFTLTINSLQPEDFATYYCQQADSFPLTFGGGTKVEIK
B19: C5A (XPA23) VL R31F (antibody, V domains shown)
VH: EVQLLESGGGLVQPGGSLRLSCAASGFTFSKYFMFWVRQAPGKGLEWVSVISPSGGMTRYADSVKGRFTISRDNSKNTLYLQMNSLRAEDTAVYYCARVGYGGNSDYWGQGTLVTVSS
VL: DIQMTQSPSSVSASVGDRLTIICRASQDINFWLAWYQQTPGNAPKLLIHSATSLQSGVPSRFSGSGSGTDFTLTINSLQPEDFATYYCQQADSFPLTFGGGTKVEIK
B20: C5A (XPA23) VL N30L (antibody, V domains shown)
VH: EVQLLESGGGLVQPGGSLRLSCAASGFTFSKYFMFWVRQAPGKGLEWVSVISPSGGMTRYADSVKGRFTISRDNSKNTLYLQMNSLRAEDTAVYYCARVGYGGNSDYWGQGTLVTVSS
VL: DIQMTQSPSSVSASVGDRLTIICRASQDILRWLAWYQQTPGNAPKLLIHSATSLQSGVPSRFSGSGSGTDFTLTINSLQPEDFATYYCQQADSFPLTFGGGTKVEIK
B21: C5A (XPA23) VL N30A (antibody, V domains shown)
VH: EVQLLESGGGLVQPGGSLRLSCAASGFTFSKYFMFWVRQAPGKGLEWVSVISPSGGMTRYADSVKGRFTISRDNSKNTLYLQMNSLRAEDTAVYYCARVGYGGNSDYWGQGTLVTVSS
VL: DIQMTQSPSSVSASVGDRLTIICRASQDIARWLAWYQQTPGNAPKLLIHSATSLQSGVPSRFSGSGSGTDFTLTINSLQPEDFATYYCQQADSFPLTFGGGTKVEIK

For this test, the target named is binding partner of C5A (XPA23). Nature of the test: Biacore K-off. A general note: Surface plasmon resonance follows binding to a sensor surface in real time, without labels.
Turning to B1, the fold difference in affinity vs original worked out at 1.17 fold.
Consider B2, for which the fold difference in affinity vs original was 1.06 fold.
On to B3, for which the fold difference in affinity vs original was 0.69 fold.
As for B4, the fold difference in affinity vs original was determined as 0.92 fold.
The result for B5 reads 1.59 fold.
B6: the fold difference in affinity vs original was 0.51 fold.
Then B7, with 0.21 fold.
Take B8: the fold difference in affinity vs original was 0.07 fold.
On to B9, for which the fold difference in affinity vs original was found to be 0.44 fold.
B10: the fold difference in affinity vs original was 0.68 fold.
As for B11, the fold difference in affinity vs original was determined as 0.89 fold.
As to B12, the fold difference in affinity vs original came out at 0.43 fold.
Turning to B13, the fold difference in affinity vs original turned out to be 0.23 fold.
As for B14, the fold difference in affinity vs original is 8.48 fold.
The result for B15 reads 0.71 fold.
Then B16, with 0.65 fold; and B17, with 0.5 fold; and B18, with 0.86 fold.
The result for B19 reads 0.92 fold; that for B20, 0.68 fold; that for B21, 0.61 fold.

Source of the values: patent publication US20110118447A1.
